Measured values: paper PMC11470957, “Principles of paralog-specific targeted protein degradation engaging the C-degron E3 KLHDC2” (Nature Communications, 2024)

Target: KLHDC2 substrate binding domain (KLHDC2^SBD, 15-361) (UniProt Q9Y2U9)
Sequence (Q9Y2U9 15-361): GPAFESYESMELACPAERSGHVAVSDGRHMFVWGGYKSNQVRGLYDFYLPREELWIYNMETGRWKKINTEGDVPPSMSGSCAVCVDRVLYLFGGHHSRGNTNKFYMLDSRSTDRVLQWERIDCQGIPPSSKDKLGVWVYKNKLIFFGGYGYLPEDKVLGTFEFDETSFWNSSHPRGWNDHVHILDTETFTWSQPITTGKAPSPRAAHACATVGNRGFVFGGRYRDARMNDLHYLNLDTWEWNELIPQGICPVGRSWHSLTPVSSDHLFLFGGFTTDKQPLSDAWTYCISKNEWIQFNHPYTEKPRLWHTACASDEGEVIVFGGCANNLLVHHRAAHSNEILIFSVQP

**Q.** Which improvement of the IC50 of inhibition of KLHDC2 di-Gly substrate ubiquitylation, SJ46421-BRD3^BD2 against SJ46421 alone (orders-of-magnitude) does the source give for “BRD3^BD2 (second bromodomain of BRD3, residues 306-416) (from UniProt Q15059 306-416) (domain or fragment)” here?
**A.** 2
